Literature values, collected in patent publication US11937625B2, “Oral administration formulation of blueberry extract as a coadjuvant for preserving the health of human precorneal film” (CENTRO DE RETINA MEDICA Y QUIRURGICA, S.C., priority 2017, dated 2024).

Tests used:
[1] = day 60; oral supplement; post-cataract surgery patients; control group 7.86 (±0.86) seconds
[2] = system: pepsin; details: in mice; Nojima et al (2008)

B1: lactoferrin (protein, UniProt P02788 20-710, looked up)
Lactotransferrin: GRRRSVQWCAVSQPEATKCFQWQRNMRKVRGPPVSCIKRDSPIQCIQAIAENRADAVTLDGGFIYEAGLAPYKLRPVAAEVYGTERQPRTHYYAVAVVKKGGSFQLNELQGLKSCHTGLRRTAGWNVPIGTLRPFLNWTGPPEPIEAAVARFFSASCVPGADKGQFPNLCRLCAGTGENKCAFSSQEPYFSYSGAFKCLRDGAGDVAFIRESTVFEDLSDEAERDEYELLCPDNTRKPVDKFKDCHLARVPSHAVVARSVNGKEDAIWNLLRQAQEKFGKDKSPKFQLFGSPSGQKDLLFKDSAIGFSRVPPRIDSGLYLGSGYFTAIQNLRKSEEEVAARRARVVWCAVGEQELRKCNQWSGLSEGSVTCSSASTTEDCIALVLKGEADAMSLDGGYVYTAGKCGLVPVLAENYKSQQSSDPDPNCVDRPVEGYLAVAVVRRSDTSLTWNSVKGKKSCHTAVDRTAGWNIPMGLLFNQTGSCKFDEYFSQSCAPGSDPRSNLCALCIGDEQGENKCVPNSNERYYGYTGAFRCLAENAGDVAFVKDVTVLQNTDGNNNEAWAKDLKLADFALLCLDGKRKPVTEARSCHLAMAPNHAVVSRMDKVERLKQVLLHQQAKFGRNGSDCPDKFCLFQSETKNLLFNDNTECLARLHGKTTYEKYLGPQYVAGITNLKKCSTSPLLEACEFLRK
- fluorescein break-up time [1]: 13.9 (±0.99) seconds

B2: mono-PEGylated lactoferrin: lactoferrin with covalent attachment of polyethylene glycol (PEG), synthesized by Nojima et al (2008) (conjugate, UniProt P02788 20-710, looked up)
Lactotransferrin: GRRRSVQWCAVSQPEATKCFQWQRNMRKVRGPPVSCIKRDSPIQCIQAIAENRADAVTLDGGFIYEAGLAPYKLRPVAAEVYGTERQPRTHYYAVAVVKKGGSFQLNELQGLKSCHTGLRRTAGWNVPIGTLRPFLNWTGPPEPIEAAVARFFSASCVPGADKGQFPNLCRLCAGTGENKCAFSSQEPYFSYSGAFKCLRDGAGDVAFIRESTVFEDLSDEAERDEYELLCPDNTRKPVDKFKDCHLARVPSHAVVARSVNGKEDAIWNLLRQAQEKFGKDKSPKFQLFGSPSGQKDLLFKDSAIGFSRVPPRIDSGLYLGSGYFTAIQNLRKSEEEVAARRARVVWCAVGEQELRKCNQWSGLSEGSVTCSSASTTEDCIALVLKGEADAMSLDGGYVYTAGKCGLVPVLAENYKSQQSSDPDPNCVDRPVEGYLAVAVVRRSDTSLTWNSVKGKKSCHTAVDRTAGWNIPMGLLFNQTGSCKFDEYFSQSCAPGSDPRSNLCALCIGDEQGENKCVPNSNERYYGYTGAFRCLAENAGDVAFVKDVTVLQNTDGNNNEAWAKDLKLADFALLCLDGKRKPVTEARSCHLAMAPNHAVVSRMDKVERLKQVLLHQQAKFGRNGSDCPDKFCLFQSETKNLLFNDNTECLARLHGKTTYEKYLGPQYVAGITNLKKCSTSPLLEACEFLRK
modifications: mono-PEGylated
- resistance to pepsin proteolysis [2]: greater resistance
